Assay results taken from patent publication US20030059419.

T1: Myc-I-TRAF (human I-TRAF, full length, with a Myc epitope added to the N-terminal), Q92844
T1 chain: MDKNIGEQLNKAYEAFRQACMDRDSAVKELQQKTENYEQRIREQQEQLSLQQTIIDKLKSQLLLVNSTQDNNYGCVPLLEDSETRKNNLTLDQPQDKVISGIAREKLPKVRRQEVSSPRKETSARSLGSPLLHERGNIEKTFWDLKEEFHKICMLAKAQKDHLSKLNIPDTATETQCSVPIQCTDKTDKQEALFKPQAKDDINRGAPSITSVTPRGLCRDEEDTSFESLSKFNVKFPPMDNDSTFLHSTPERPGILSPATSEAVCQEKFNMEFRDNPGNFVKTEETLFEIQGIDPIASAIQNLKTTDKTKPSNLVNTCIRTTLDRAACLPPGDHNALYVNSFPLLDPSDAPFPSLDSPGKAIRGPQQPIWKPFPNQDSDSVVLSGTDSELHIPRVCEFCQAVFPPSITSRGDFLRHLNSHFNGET

T2: GST-I-TRAF (human I-TRAF as a chimera protein with glutathione S transferase, purified from E. coli), Q92844
T2 chain: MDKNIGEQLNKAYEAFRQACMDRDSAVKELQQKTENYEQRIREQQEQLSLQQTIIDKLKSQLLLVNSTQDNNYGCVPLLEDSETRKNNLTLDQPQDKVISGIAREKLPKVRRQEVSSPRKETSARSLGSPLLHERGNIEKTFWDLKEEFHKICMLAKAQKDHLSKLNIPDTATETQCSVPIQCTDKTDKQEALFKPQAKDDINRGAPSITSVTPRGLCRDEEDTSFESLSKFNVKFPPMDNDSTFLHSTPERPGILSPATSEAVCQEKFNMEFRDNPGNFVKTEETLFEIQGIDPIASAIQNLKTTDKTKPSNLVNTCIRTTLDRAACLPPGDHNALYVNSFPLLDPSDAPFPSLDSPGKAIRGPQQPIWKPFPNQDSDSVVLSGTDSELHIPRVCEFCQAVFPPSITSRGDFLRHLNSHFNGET

B1: Flag-IKK-i (human IKK-i with a Flag epitope linked to the N-terminal) (protein)
chain: MQSTANYLWHTDDLLGQGATASVYKARNKKSGELVAVKVFNTTSYLRPREVQVREFEVLRKLNHQNIVKLFAVEETGGSRQKVLVMEYCSSGSLLSVLESPENAFGLPEDEFLVVLRCVVAGMNHLRENGIVHRDIKPGNIMRLVGEEGQSIYKLTDFGAARELDDDEKFVSVYGTEEYLHPDMYERAVLRKPQQKAFGVTVDLWSIGVTLYHAATGSLPFIPFGGPRRNKEIMYRITTEKPAGAIAGAQRRENGPLEWSYTLPITCQLSLGLQSQLVPILANILEVEQAKCWGFDQFFAETSDILQRVVVHVFSLSQAVLHHIYIHAHNTIAIFQEAVHKQTSVAPRHQEYLFEGHLCVLEPSVSAQHIAHTTASSPLTLFSTAIPKGLAFRDPALDVPKFVPKVDLQADYNTAKGVLGAGYQALRLARALLDGQELMFRGLHWVMEVLQATCRRTLEVARTSLLYLSSSLGTERFSSVAGTPEIQELKAAAELRSRLRTLAEVLSRCSQNITETQESLSSLNRELVKSRDQVHEDRSIQQIQCCLDKMNFIYKQFKKSRMRPGLGYNEEQIHKLDKVNFSHLAKRLLQVFQEECVQKYQASLVTHGKRMRVVHETRNHLRLVGCSVAACNTEAQGVQESLSKLLEELSHQLLQDRAKGAQASPPPIAPYPSPTRKDLLLHMQELCEGMKLLASDLLDNNRIIERLNRVPAPPDV
B2: mutant IKK-i (K38A), Flag-tagged human IKK-i with the No. 38 lysine replaced by alanine (protein)
chain: MQSTANYLWHTDDLLGQGATASVYKARNKKSGELVAVAVFNTTSYLRPREVQVREFEVLRKLNHQNIVKLFAVEETGGSRQKVLVMEYCSSGSLLSVLESPENAFGLPEDEFLVVLRCVVAGMNHLRENGIVHRDIKPGNIMRLVGEEGQSIYKLTDFGAARELDDDEKFVSVYGTEEYLHPDMYERAVLRKPQQKAFGVTVDLWSIGVTLYHAATGSLPFIPFGGPRRNKEIMYRITTEKPAGAIAGAQRRENGPLEWSYTLPITCQLSLGLQSQLVPILANILEVEQAKCWGFDQFFAETSDILQRVVVHVFSLSQAVLHHIYIHAHNTIAIFQEAVHKQTSVAPRHQEYLFEGHLCVLEPSVSAQHIAHTTASSPLTLFSTAIPKGLAFRDPALDVPKFVPKVDLQADYNTAKGVLGAGYQALRLARALLDGQELMFRGLHWVMEVLQATCRRTLEVARTSLLYLSSSLGTERFSSVAGTPEIQELKAAAELRSRLRTLAEVLSRCSQNITETQESLSSLNRELVKSRDQVHEDRSIQQIQCCLDKMNFIYKQFKKSRMRPGLGYNEEQIHKLDKVNFSHLAKRLLQVFQEECVQKYQASLVTHGKRMRVVHETRNHLRLVGCSVAACNTEAQGVQESLSKLLEELSHQLLQDRAKGAQASPPPIAPYPSPTRKDLLLHMQELCEGMKLLASDLLDNNRIIERLNRVPAPPDV

Assays:
[1] = target: Myc-I-TRAF (1-247) defective mutant, human I-TRAF amino acids No. 1-247 with N-terminal Myc, Q92844
[2] = target: GST-IκB-αN protein (WT), amino acids 1-72 of IκB-α fused to GST [GST: P08515]
[3] = target: T1, Myc-I-TRAF (human I-TRAF, full length, …)
[4] = target: GST-IκB-αN protein (AA), GST-IκB-αN with the No. 32 and No. 36 serine residues replaced by alanine [GST: P08515]
[5] = target: T2, GST-I-TRAF (human I-TRAF as a chimera …)

| Protein | in vitro kinase assay on immunoprecipitates, I-TRAF deletion mutants [1] | in vitro kinase assay ([γ-32P]ATP, 30° C., 20 minutes, SDS-PAGE, autoradiography) [2] | in vitro kinase assay ([γ-32P]ATP) on immunoprecipitates [3] | in vitro kinase assay on immunoprecipitates, I-TRAF deletion mutants [3] | in vitro kinase assay ([γ-32P]ATP, 30° C., 20 minutes, SDS-PAGE, autoradiography) [4] | in vitro kinase assay with purified GST-I-TRAF (1.0 µg) added to the anti-Flag immunoprecipitate [5] |
| --- | --- | --- | --- | --- | --- | --- |
| B1 | phosphorylations of FL (lanes 4 and 8) and Myc-I-TRAF (1-247)(lanes 2 and 6) were confirmed | IKK-i phosphorylated GST-IκB-αN protein (WT) | Bands of phosphorylated Myc-I-TRAF were detected in both of immunoprecipitates with anti-Flag antibody (lane 2) or anti-Myc antibody (lane 4) | phosphorylations of FL (lanes 4 and 8) and Myc-I-TRAF (1-247)(lanes 2 and 6) were confirmed | IKK-i did not phosphorylate GST-IκB-αN protein (AA) | in cells in which Flag-IKK-i was expressed, phosphorylation of GST-I-TRAF was observed |
| B2 | – | K38A-IKK-i did not phosphorylate GST-IκB-αN protein (WT) | – | – | – | No phosphorylation was observed with the K38A mutant |
